Consider four molecules from publication PMC7022617, “Structural and Functional Aspects of G-Quadruplex Aptamers Which Bind a Broad Range of Influenza A Viruses”.

This data set has as its target hemagglutinin HA1 subunit H5 (recombinant, Abcam ab190125) (Influenza A virus A/Vietnam/1203/2004 …, UniProt Q6DQ33 17-346). Description: SPR; 10 mM K+. The conditions noted are these: protein: commercial.

For TTGGGGTTATTAAGGGAGGGCGGGGGTT (structured_DNA) [G7-TTATTAA], the dissociation constant Kd (parallel intramolecular G4) worked out at 30 ± 10 nM. For TTGGGGTTATTTTGGGAGGGCGGGGGTT (structured_DNA) [RHA0385], the Kd was 13 ± 3 nM. As for TTGGGGTAAGAAGGGAGGGCGGGGGTT (structured_DNA) [G7-TAAGAA], the Kd stood at 60 ± 10 nM. In the case of TTGGGGTTAGGGAGGGCGGGGGTT (structured_DNA) [G7-TTA], the Kd came out at 20 ± 6 nM.

By Kd is commonly meant the constant that tells how readily two partners part at equilibrium.
